Usually Kd stands for the concentration at which binding is half-saturated. One may read the kon as the rate constant with which the complex forms. Low values mean slower complex formation, high ones faster complex formation.

Experimental findings from doi:10.1101/2022.07.27.501708 (bioRxiv, 2022) are described below.

The target of this assay is SARS-CoV-2 WT RBD (SPR analyte) (SARS-CoV-2, Wuhan-Hu-1, UniProt P0DTC2). Kind of assay: SPR. A general note: In SPR one partner is held on a chip, and binding of the other changes the refractive index at the surface.

B1: EH8 IgG (antibody, V domains shown)
VH: QVQLVQSGAEVKKPGASVKVSCKASGYTFSSYGISWVRQAPGQGLEWMGWISPYNGNTKYPQKFQGRVTMTTDTSTNTAYMELRSLRSDDTAVYYCARDLELGGGFDYWGQGTLVTVSS
VL: QSALTQPASVSGSPGQSITISCTGTSSDVGSYNLVSWYQQHPDKAPKFMIYEGTKRPSGVSNRFSGSKSGNTASLTISGLQAEDEADYYCCSYAGNSTWVFGGGTKLTVL
B1 gave a Kd of 1.3 to 7.22 nM and a kon of 403000 to 837000 M⁻¹ s⁻¹.

B2: EH3 IgG (antibody, V domains shown)
VH: EVQLVESGGGLVQPGGSLRLSCAASGITVSSNYMTWVRQAPGKGLEWVSVIYSGGSTFYADSVRGRFTISRDNSKNTLYLQMNSLRAEDTAVYYCARDLEMAGAFDIWGQGTMVTVSS
VL: not shown
B2 registered a Kd of 0.83 to 2.79 nM and an on-rate (kon) of 83200 to 274000 M⁻¹ s⁻¹.
